Data as given in the DeepSol protein solubility set.

experiment: soluble on expression in E. coli; label from the status in PepcDB or PDB records

Row | Sequence | soluble on expression in E. coli
1 | MHHHHHHSSGVDLGTENLYFQSMNITKGGLVLFSANSNSSCMELSKKIAERLGVEMGKVQVYQEPNRETRVQIQESVRGKDVFIIQTVSKDVNTTIMELLIMVYACKTSCAKSIIGVIPYFPYSKQCKMRKRGSIVSKLLASMMCKAGLTHLITMDLHQKEIQGFFNIPVDNLRASPFLLQYIQEEIPDYRNAVIVAKSPASAKRAQSFAERLRLGIAVIHGEAQDAESDLVDGRHSPPMVRSVAAIHPSLEIPMLIPKEKPPITVVGDVGGRIAIIVDDIIDDVDSFLAAAETLKERGAYKIFVMATHGLLSSDAPRRIEESAIDEVVVTNTIPHEVQKLQCPKIKTVDISMILSEAIRRIHNGESMSYLFRNIGLDD | soluble
2 | MAHHHHHHMAAVTPPTSRALPLEATAIFPPQGSRELDRGAPPLESLSCTKRATAAQHIRGGEGRGAAPCLYIQTVSGSLLPVVLSPSPTHSPIPQRCEQYRDAYANVTICIDTEERSIQRLETFGGGTTITAILCKRYFPPFQ | not soluble
3 | MTDNNTALKKAGLKVTLPRLKILEVLQEPDNHHVSAEDLYKRLIDMGEEIGLATVYRVLNQFDDAGIVTRHNFEGGKSVFELTQQHHHDHLICLDCGKVIEFSDDSIEARQREIAAKHGIRLTNHSLYLYGHCAEGDCREDEHAHEGK | soluble
4 | MNPVEPADLVDIREQLHSGCHIVQAKGFSFLANRIINKELDAKDEKKYRKLLFDCFVVEEDILFRFLIDTLPILLIRGSNSPETLWEEFTLRAPRIRRIQRAFGMMISHCKPSFSKFLDVAARIDSEILTKICISSEFGYNFYQYIAVLSFTGLLSDSQKRLVGNCGLAQNVFLKHQPDLYPTGHESEHDPESFLRECSAEDLLSHPLHNIDPFQRHKLMRDRPAVLESKNLPNHILYLPYAVMLSQYKQVIVKLVEQSKMADHKLASENRVSGCRDTYSFAAPDFSDQDLTFETFMYHTIATGKVTSFIKYVENYHESLGILQKAHLLPALTVFLTHSSTNPSLQERICKLIALFVKKAPENADQFVLYFITLYQKPFFPIHRHLLLETIKDLFVNRFVISSAFGFLKITACLEGDRVRSLECLAEIIPKFTQLFEPMTSLCALKRDDGSDESFYAELHLLKECCKVTEDNEKALSKISNSLKECTGPRLAAIVDAVTDLIKCGVLDTIGARSMLTKRARQRGCEQSLGTYCRLLSTSTIPEENEEQARILRMSCIEELANLKQNDNHTVASEAWRSLGAFELDELEKGLKINPAQFATLFVKLRKEVQNGFIDFLSLCLHKEVESYQRPLYNTSAQDVNVSPLLTKVDTFKDKLIIENKNEPWFWSASLSLSASILQLTGPTNRAQASVRLLQSCLENVVPASSHDEMIRLMAGWRICIREVLHVLTESKSNDILWARDQIINTGRTSLTNKAESVDNIMMMLTALADAIDQQLRNIENDEQVEEVSKAQNPWLLSVYEFVATRLPKNLKEKRVAKNEPIYQLITHSNKSSLLTAIFCLRLLYLNPSVAAFYNDEDVGLTDDRMLVSLLQDSTKELKKEEIPDRKMMWVTAEAYGASQMSAKAFEVAYNIVIDEKTEKYEETELVDDESIEKFFNGLISSPKKDLKEIEQNNKKVLEKLWNNGNNEVRRKIYEGLAELALISGTGRSKMVIPAGKLPEGILKGILQLFDKKINVKPETLRNIIRCLVNHRRNDGRFLPPIDWMKFLERSEWTKADTDARLAMITLACEQNISEVIFHFSSSLTVKELLVLSENLRSVSKLFPRKEFTMILVQMAVQARKEDVETSKKLSMALSDLQKDSTVHNFLMKCLPKLFDISGITDPILNSIKDPDAFGGQISNCFDVWLEARRGEKMNIRRICDIFGKEESNSKKNAICALISHESRTLSRKMRFEKLLDVITASRIARTFGGSMQSFFSIFLSIIVSNNDTVEIPLCWFENQEHVPAMMIAAKQPFYKWIVEAPEMKSNAHHFGSFLSYYVDGPEKQYYEYWHTEGATDLLAMIVSAYPNETFPNLLTQTDEFWKSLLGIADVGK | not soluble
5 | MLLSVIITAQGRKGYVMQAVRSVLSQNIPKEDFEIIVSKDFKDDVIDEFLDGRAIVLNENHIRSGSRVASAVLQSSGKILVFLDDDDLFYPGKLREVKIVFSEMGVDYFKNSVKPVAESGDTVSYYQPAIKSDIFVKEPNEQDIRKLLKLRAGFNSSSISLKKDILVGYLDVLSKINLAVDSFYFFLYMSHSRPIYYSKKTLSLYRVLSKSTSRDVRNINAYAEFKSKFYELYSRDFETISEMASDGPCSKLAKTEFHLQMAYKWIFNTYRKEERPRMLHTLASSIYSHDPFIALPWPSFMKKIVQRREYFREKKLLSENTELEHHHHHH | not soluble
6 | RKPSFLALPGHLVKSEETVILQCWSDVMFEHFLLHREGKFNNTLHLIGEHHDGVSKANFSIGPMMPVLAGTYRCYGSVPHSPYQLSAPSDPLDMVIIGLYEKPSLSAQPGPTVQAGENVTLSCSSRSSYDMYHLSREGEAHERRLPAVRSINGTFQADFPLGPATHGGTYRCFGSFRDAPYEWSNSSDPLLVSVT | soluble
7 | MGSDKIHHHHHHMAIIETRGIWLTTTDSKVLRSKQRIAEAMDLLAETGFNVVFPVVWNKAVTLYPSQTMQETFGVEIDPMSVGRDPLEEVVVEARRVGLKVIPWFEYGFASSYNLNGGVLLQKKPEWAARDFNGNLLNKNGFEWLNALDSQVQEFFLNLVLEVVKNYDVDGVQGDDRLPAFPCEGGYDEGTVSRYRQEYDRNPPQNPKDRQWLQWRADILTDFLARLYGEVKAVNPNLLVAIAPNIHDWAFQEYLQDSPTWLKRGIVDMIQPQIYRRDFGSYCAIADKLVSQQFTDATLPRLAPGILMKLGSYCISPEYLVQAIEYNRQLGIQGEVFFFYEGLRENNNTLAKVLRNGPYAKSASFPTLSDLSVSGVSNKKTSSTWQRLLKKIF | not soluble
8 | MVQVGAAAINRVDVAVIGGGIAGVAIAEYVARHTNLSVQLLEQNSHLGGDSSGKLEGWFHTGALYSGQDDGQTFFNCVNGVEDLLNHYSHYFAGRCNLTLEQFDHGYRPTVTGAGWFDPNPVYLIHPQRHSPEMLQSGLKGDRVQLEMQLKRVLGRLEMAYGQQFNWRSPTGNGAVAPDYDHLESYEQRSCSLLGQSEKISHYCQQFDLSHGVKPSDYALLKSLDCAMDTQGILQDLTASALAHGTAIATGINLEQINVDRYGPVRVQSIFYRDCQGQQHYLKAKAFIFAVGAGFERILPTLQVRAKLKQSRSTMVVAYPAISSHNFVRMSTKNSYHFNHFFQRANIPDSSEFLNYSMLANSGYVSNENDYLASGEIELLLDTAARYFSEENLYQRQLWSYDCVKTEFISDDAQKRRYSYWIEVNPQSNYLCVLPGKFSFFPTVAVQTLKQLKTILPTEEVDRSHRDYSAHYHQAQALVASPYPHQLLASYWKNNANSLEHHHHHH | soluble
9 | MAHHHHHHMNGRYVPQEVLGTGTYGRVLRCNDVLTGRQVAVKVSQRDAAYRRSAMNEIRVLQLLSHTDNALKMFDFFEDSGHLCIASELLCTDFYEVLRKNGFQPLSLDTVRIVGERVLRALAELHKAGYMHCDIKPANVMLRFNETDRSNLSDFTKTCLIDFGAARQFHENTYYDVQSLWYRAPEVMLGLPYTSHIDSWSVGCLLFELYTGKPLFAGENPREQMTSIMCTVGMPPMEAFSSGANVEKLQLPCLAMDVNAEANLRNLIASYRCNNTGFNHSYQLVGEESAFVNLLCALLQPDVRWRLSCTDALHHAFFTSRCLYHGNIVSANFSVFSPSSNGLQSSIDSNFGAVFSSTGNDARGFGGFEHLVPQQTQPHPNPHPQPRLKSESSPILPANSNSVPLVGLVGSPPGMVLPGTRPPASSQVNIPSSRVVLQNVMYPTPPMKIIQPVPFNTQQSQKALQQPQRVSANMLPVMVSAIGNPYSFPPCVRPECQVQNWEPVIFQPQQQIPPEVTPMFQCKILPGGCQYNYQGGADPSFYGASIKSGLHSAVYVPS | not soluble
10 | MGSDKIHHHHHHMTNQIKIAVIGVGRWGVHLLRNFLAHPQVDVVAVVDPHPERLAAIKQQFNLDENVVLTTQWEDLKKVPGLTGVAIATPATTHYALIKDSLQQGYHVLAEKPLTLDPAECRELCQLAEQHHLILMVDHTYLFHPAVEQGQTVVQAGKLGDLRYGYATRTHLGPVRQDVDALWDLAIHDIAIFNAWLGQIPVKVQATGTVWLQGAGEQGSREAEGKKDTNFPLPQGLADLVWLTLTYPDGFQAYIHLCWLNPDKQRRLGIVGSLGSLIFDEMSRSSPLTLLHGEFEQQGNHFIPVNQKQVVLELEPGEPLGRVCSCFVDSILNNTPSEVSSGWVGTQLVEILAALTVSLEQGGQPVFLNNCSQV | not soluble
11 | MPGLCTGPFAKGRCMSLLAQLDQKIAANGGLIVSCQPVPDSPLDKPEIVAAMALAAEQAGAVAIRIEGVANLQATRAVVSVPIIGIVKRDLEDSPVRITAYIEDVDALAQAGADIIAIDGTDRPRPVPVETLLARIHHHGLLAMTDCSTPEDGLACQKLGAEIIGTTLSGYTTPETPEEPDLALVKTLSDAGCRVIAEGRYNTPAQAADAMRHGAWAVTVGSAITRLEHICQWYNTAMKKAVL | soluble
12 | MAHHHHHHMLRRTARRAMGNSRFSGSKERDRIEQERRRRLLYDAAGNLQLGGLLLMMYDDFKKPAAIGLGMVAFLYGYNRLVVRLSREEEAEGLQLDAKSEAVARQTGKLKADRYLVKPNRQIDDPDFLNIPAFGGRGVSSSKLLSDDSVSGGALHSERKRS | not soluble
13 | MLSTIEYLSLLRKYMRENAVKYGISRMGIFGSVARGEQHDGSDVDICVEIDRPSIFTLVHIKEELEKLFKCPVDVVRLRNNMDELLRNCINKDGIYV | not soluble
14 | MEEKFTPEEQAIYDEHFASDRPVELVEPEQVREAFNAEESSQQPSVEPLQEQPNSGVIEQERQARQKAEQKAMEARELAIEFAQKYAQMQEEAVRRRDENIPTLEDDPKAHVAWLSHKVQEQQKLLDEFSRIRESQERLNQEEYERQKLGDYFEEAKAQVQDKYPDLDSITDYLYERADSVLQAQADLYPQWKDPAARQQQIGAELRQICQQCQKAGINPIEVLVQKAKAFGYSGAPIKDEVETLQERSQAARTLTARGGQVPTGGMDMRTLFSMPDAEFAVWVEKNPEKFEQIMSRT | not soluble
15 | MKKISRKEYVSMYGPTTGDKVRLGDTDLIAEVEHDYTIYGEELKFGGGKTLREGMSQSNNPSKEELDLIITNALIVDYTGIYKADIGIKDGKIAGIGKGGNKDMQDGVKNNLSVGPATEALAGEGLIVTAGGIDTHIHFISPQQIPTAFASGVTTMIGGGTGPADGTNATTITPGRRNLKWMLRAAEEYSMNLGFLAKGNASNDASLADQIEAGAIGFKIHEDWGTTPSAINHALDVADKYDVQVAIHTDTLNEAGCVEDTMAAIAGRTMHTFHTEGAGGGHAPDIIKVAGEHNILPASTNPTIPFTVNTEAEHMDMLMVCHHLDKSIKEDVQFADSRIRPQTIAAEDTLHDMGAFSITSSDSQAMGRVGEVITRTWQTADKNKKEFGRLKEEKGDNDNFRIKRYLSKYTINPAIAHGISEYVGSVEVGKVADLVLWSPAFFGVKPNMIIKGGFIALSQMGDANASIPTPQPVYYREMFAHHGKAKYDANITFVSQAAYDKGIKEELGLERQVLPVKNCRNVTKKDMQFNNTTAHIEVNPETYHVFVDGKEVTSKPANKVSLAQLFSIF | soluble
16 | MKLIRGIHNLSQAPHGCVLTIGNFDGVHRGHRALLQGLQEEGRRRGLPVVVMIFEPQPLELFATDKAPARLTRLREKLHYLAQCGVDYVLCVKFDRRFAALTAQTFISELLVERLGVQFLAVGDDFRFGASRAGDFLLLQKAGAEYGFAVSSTQTFCEGGVRISSTAVRQALAEDNLALAESLLGHPFTISGRVVHGDELGRTIGFPTANLPLRRQVSPVKGVYAVEVTGLGDKPLPGVANIGTRPTVAGVRQQLEVHLLDVVMDLYGRHIDVILRKKIRNEQRFASLDELKAQIARDELTARKFFGLAGQV | not soluble
